Test results published in the DeepSol protein solubility set.

Test: soluble on expression in E. coli; label from the status in PepcDB or PDB records

| Sequence | soluble on expression in E. coli |
| --- | --- |
| MSLNFLDFEQPIAELEAKIDSLTAVSRQDEKLDINIDEEVHRLREKSVELTRKIFADLGAWQIAQLARHPQRPYTLDYVRLAFDEFDELAGDRAYADDKAIVGGIARLDGRPVMIIGHQKGRETKEKIRRNFGMPAPEGYRKALRLMQMAERFKMPIITFIDTPGAYPGVGAEERGQSEAIARNLREMSRLGVPVVCTVIGEGGSGGALAIGVGDKVNMLQYSTYSVISPEGCASILWKSADKAPLAAEAMGIIAPRLKELKLIDSIIPEPLGGAHRNPEAMAASLKAQLLADLADLDVLSTEDLKNRRYQRLMSYGYALEHHHHHH | not soluble |
| MSSTQTDYRLSDDLLGPVLAILDAYIDPYLAKGLVSAGCVNKLAIEGKRLQLGLVYPYPCMTQYRDTVMALTNKLAVLDAIDEVECEIDFQPKVYSAIASIAPIANVKQVIAVASGKGGVGKSTTAVNLALALAAEGAQVGILDADIYGPSVPLMLGIPNFRPVSPDGKHMTAASAYGIAAQSIGFMLSGDEAAVWRGPMAAGALAQLLNETQWPELDYLVVDMPPGTGDIQLTLSQKVPVSGAVIVTTPQDIALADAKKGITMFQKVNIPVLGIVENMSFHLCPECGHKEHPFGTHGGSKMAERYQVPLLGALPLHINIREAMDVGAPTVVAEPDSEVAALYREIARKVGAELALKQSQKTVSISVSDDELEHHHHHH | soluble |
| MGSDKIHHHHHHMEEYIRRILTLGRKRLEKFALKGGKPLPERPLIVKLMEEIRGFLGSGENRVILLYGLRGVGKTTMLAQLYLKLIGEVSGERILYASVDEIKMLGYRLKDVFESYEHIIGERLEELREPTIFLLDEVHYDEEWDLALKVAYDRARNLMIVATGSSAIELKLSTDLARRAKRFHITPLTFTEYLLLKGIRVNEEVKKVLKRLLLAGEVEGIEEEIRKTFLTFDPIEVERYLLYGSLPLALSSREPLEETYSIVERIIRWDLAKMGFSQEVLEKAFLLMLMLASGEALNYDRLTSRLGISRPVLAKLLSAFENLEVIFPVRAYGSLGKAIRKTPKYKFLAPVIRTSILNHFGLLEVNEKILGNLLEDVVALYLYIIARELSGSVTYDAEKGGADFILTTPIGRIVLEVGWGKKGKEQVKRTMKKIGAERGIIIHGGDFREKNGVIWLPKEWFLLML | not soluble |
| MSLHWLNRNTRKGSQKNIAAHYDLGNTLFEQFLDPTMMYSAAQFLSNDDTLEQAQLNKLERICQKLALKPTDHLLEIGTGWGSMAIYAAQQYGCRVTTTTLSREQFAYTEQRLIKLGLQDRVTLLLTDYRDLTGEYDKLVSIEMIEAVGHRFLPTYFKQCASLLKSNGMMLLQAITIREQRYAQAKRNVDFIQRYIFPGGALPSVAKMLDIVGSDTDMNLLHMEDFGLHYARTLRLWHDNFKHAHGTLTELGYDDYFLRLWEFYLCYCEGGFLERTIGTAQLLLAKPDALREGHHHHHH | not soluble |
| MHHHHHHSSGVDLGTENLYFQSMCAAQMPPLAHIFRGTFVHSTWTCPMEVLRDHLLGVSDSGKIVFLEEASQQEKLAKEWCFKPCEIRELSHHEFFMPGLVDTHIHASQYSFAGSSIDLPLLEWLTKYTFPAEHRFQNIDFAEEVYTRVVRRTLKNGTTTACYFATIHTDSSLLLADITDKFGQRAFVGKVCMDLNDTFPEYKETTEESIKETERFVSEMLQKNYSRVKPIVTPRFSLSCSETLMGELGNIAKTRDLHIQSHISENRDEVEAVKNLYPSYKNYTSVYDKNNLLTNKTVMAHGCYLSAEELNVFHERGASIAHCPNSNLSLSSGFLNVLEVLKHEVKIGLGTDVAGGYSYSMLDAIRRAVMVSNILLINKVNEKSLTLKEVFRLATLGGSQALGLDGEIGNFEVGKEFDAILINPKASDSPIDLFYGDFFGDISEAVIQKFLYLGDDRNIEEVYVGGKQVVPFSSSV | soluble |
| MGSDKIHHHHHHMLSIERQCQCMQLLIETFTVPIEIRALKTANIYRLETDDSAFLIDSGMSDNSIKSIEQNLKKIDFVFITHLHIDHLGGVLYLHEKYGIPAYMNHLDLDLIMNANEDRDGYIKRHSEIFRVNGVPPSMVEEIITMHPVIRYFDYYSKLDFVQDYRKINASGIKFVEVPGHSPGSTAVYIEDSRDLFAGDHILDRITPNIAVYGDEDDLGNYLESLEKVRAMKVDRIFPGHGNVITEPKIRIDDIEKHHHDRMRAIIAALKSPKTAYEVARDITWSKGRKMDTMNFMERNFAILETVSHLKHMDRKGMVRRIEENGIIKYSYIQ | not soluble |
| MGSDKIHHHHHHMKFLNVIFKGHSISELIQEVIYVFIGYFFLMISYCTPRNKKKWVFGNKKIFKDNTKYLFIYMQEQHPEIQTIWITSSRRLVKRLRALSYSAYYKYSLKGLYHSLTAGVYVSTVNSNHINFFTSGRVFNVNLWHGISLKAMVDNKAVPADRSFLSRVCMPYVYEQYGLFFSTTPTIDDQYLRFFRFDPQVLYHGMSPRCSFMMMDHERLLRYIEEKEDPLMLDIIHTSRKYNKVFVYMPTWRINYGTHFMDYAFPDLYALNKAFSKINAILLLKLHPSMTYDAFKYKDLKHIYYIDANIDLYPILPFTDIMISDYSSIWYDYLLLPNKGVIHYDFDVDSYAKNEFGFFRDYKTFTPGVHASDFKQLLATIESSSSLQISEERRTWILDEMWGKGRSTNNEDLIKEICKRVEQVL | not soluble |
| MSDAAKPDRPDEALVLEYDFDAPPAKVWRAVTIPALRERWSPDCDLAGAEPESTIAGEEVRYRLRDSEPPFRESHVIFRIEPNEDGGTRFRIIQQACDDLAKLPQPANTNCRLMMAALEHHHHHH | soluble |
| MSLKVRNLNISLKNNLLLKDINLDIKTGKTLMILGQSGVGKSLLGKALVRLLDSNFTISFDELSFHNSCIFNFNKEELRNFRSKVALVLQDAELSLYPYLDIGNLCHLVLKTHTKLKQKERKDYAFSYFQKLGFENLDRLWHSYANELSLGMARRVSLALALLNQPQILICDEITASLDKENASKIISILEELKNTAALVCITHDLNLVNSLADEILMLEKNSSNLYSLDEFLRYYNAEGHHHHHH | soluble |
| MLIKGLSDTLLENPLWQKTYLRSFMQFYSTNSLSWGQLSYEEGEIRNLHYGLIHSFQTSEIDTDSLPRILPANVPKQYTLCQAGDVAFADASEDTDEIGKAVEFIRTHKASVICGLHTIHGRDIKCKTLLGFKRVAFNSHYFHDQIKRLAQGTKVFSITSSNLSSCYIYIPDIVMQKSIVVLFEAYEEQLITNKRLLEQYEKQKRYLLQQMFILEHHHHHH | not soluble |
| MGSDKIHHHHHHMKIGTYQRLKAIKFLDFGVYLLEELTQEEVLLPKRYVPEGLEMGAMLEVFLYTDSEDRPVATTLKPKAILGEVAALEVVSVSERGCYLDLGIAKDIFMPCKNPYSFHEGQKVVVRLDLDKEKRLIARIGVKNYLQNAPVTLRPFTEVEILPFEWSTLGYGCMVNGRYFGMLFNNETFEKLPLGEARKGYIKAVRPDGKIDLSLRKSQGAGGLKEELEKLMKALQSAGGKLELHYDSDPDEISKITGLSKKGFKRALGEAIRSQKVELVAGKGIEQIR | not soluble |
| QGQFFREIENLKEYFNASSPDVAKGGPLFSEILKNWKDESDKKIIQSQIVSFYFKLFENLKDNQVIQRSMDIIKQDMFQKFLNGSSEKLEDFKKLIQIPVDDLQIQRKAINELIKVMNDLS | soluble |
| MPSRAEDYEVLYTIGTGSYGRCQKIRRKSDGKILVWKELDYGSMTEAEKQMLVSEVNLLRELKHPNIVRYYDRIIDRTNTTLYIVMEYCEGGDLASVITKGTKERQYLDEEFVLRVMTQLTLALKECHRRSDGGHTVLHRDLKPANVFLDGKQNVKLGDFGLARILNHDTSFAKTFVGTPYYMSPEQMNRMSYNEKSDIWSLGCLLYELCALMPPFTAFSQKELAGKIREGKFRRIPYRYSDELNEIITRMLNLKDYHRPSVEEILENPLIADLVADEQRRNLERRGRQLGEPEKSQDSSPVLSELKLKEIQLQERERALKAREKRLEQKEQELCVRERLAEDKLARAENLLKSYSLLKERKFLSLASNPELLNLPSSVIKKKVHFSGESKENIMRSENSESQLTSKSKCKDLKKRLHAAQLRAQALSDIEKNYQLKSRQILGMR | soluble |
| MAHHHHHHMVFSTHGIRVVYNTANVDRSLYAVVHCSDGKYAEVSKDHLNRLKFIEKSSEEEDIEFDYPEAVLESLAQWTLKYGMDGVAVSSTVRPCIYRNVQHVLKDDWEREFFTTRLMNDLNIMHYLQTINAAEKYEMKGFHDFLCVCLSCKLRNEEDTELVHKIMGLEDFVEIGPSDLDEAACRYTWLDQAIKPTVRR | not soluble |
| MVPPRGDAVRGPLGPGGESVVERYWEALKGVKDPEIPVLNIVEMGMVLGVEAEGKRVKVRFRPTFSGCPAIQLIREEIVGALKEAGAEEVEVEEARTPWSTEAMTEEAREKLLGYGVAPPLPLPMAGEDPPCPRCGSREVVLKNPFGATLCKTLYQCAACGEVFEAFKTV | soluble |
| MGSDKIHHHHHHMALPKKLKALNLFNNGESYLGQVVEVKLPTLSRKMEEYRGGGMNGPVDIDFGQEKIELEWKCGGMMRSVLNQYGATTHNAVQLRFAGSYQRDDSGAVDAVEFVVRGRHKEIDPGTGKSGDDTEFSVKTSASYYKLMINGSTVIEIDLMNMIEIVNGVDLLAPHRRAIGA | not soluble |
| MGSDKIHHHHHHMVAVPQAHPLSVAEYLQFEAASEIKHEYRAGEVYAMADITDVHNTIVGNWVALIRSHVRGSSDRVYCSAMQVWLQQANCIYYPDLLVTCDPRDQETVNYKRFPKLIVEVLSPSTEAFDRGDKFADYQTLETLEEYVLISTSRQRVDCFRRSLEGVWTLQFYLPNAEVLPLRSIGLEVRLSDLYEDVTLPAPPSIPESLEESR | not soluble |
| MTSQTAFDLIFRNTLLRSSAAPVDIGVKGGRIAAIEPGLTCEAVEVDVGGHLALPGFVDTHIHLDKACLLGRCGHNHGSVSEAIRAVAGMKKDFTVEDVYARGARVLERAIVHGTTRMRTHVEIDPRIGLRGFEAVKALKRDYAWAIDLSLCVFPQEGLTNDPGAEDLLIQALRDGGETIGGCPYMDTDPNTHLERIFNLAQEFDVDVDLHLDFDLDPSWWHLDEVCRQTERRNYGGRVAVGHATKLSALPPEPLKAATAQLAKAGVAVTVLPATDLYLMGREATHNAPRGLTLAHKLAGDGVLCSVATNNVLNPFTPFGDASLLRMANFYANVAHASVSDFDICLDLVTELPARLMNLGDYGIKVGNPADLIVLDTQDSRFAIAELPDVMMGFKAGRQTFARQRPTLFSPGR | soluble |
| MKVTKADIVISAVKPEQYPDGDLPEIALAGRSNVGKSSFINKILNRKKLVRISSKPGKTQTLNFFLINEMMHFVDVPGYGYAKVSKTERAAWGKMIETYFTTREQLDAAVLVVDLRHKPTNDDVMMYDFLKHYDIPTIIIATKADKIPKGKWQKHLKVVKETLDIESGDEVVLFSSETGLGKEEAWKAIHKFTKTKNA | not soluble |
| MGVFTFQDEYTSTIAPAKLYKALVTDADIIIPKAVETIQSVEIVEGNGGPGTIKKLTFIEGGESKYVLHKIEAIDEANLGYNYSIVGGVGLPDTIEKISFETKLVEGANGGSIGKVTIKIETKGDAQPNEEEGKAAKARGDAFFKAIESYLSAHPDYN | soluble |
| MSLKWSITQLRKYQGKPFEFDQTVSFDNLKESLDLIDLSPITIQGQLTIKSTEVVADIHITGTYTMPCARTLVPVKVPLDVTTTEVFDLEGYNQYNDDQDDVDEHYHIIKDGMVNLQDIVEDIVIIEKPMRAYSEQSDQMLTVGNGWEVIDEDQLDELAKQQEQDDSESRQVDPRLQKLQQLYDKEQEGHHHHHH | soluble |
| MPEIITPIITPFTKDNRIDKEKLKIHAENLIRKGIDKLFVNGTTGLGPSLSPEEKLENLKAVYDVTNKIIFQVGGLNLDDAIRLAKLSKDFDIVGIASYAPYYYPRMSEKHLVKYFKTLCEVSPHPVYLYNYPTATGKDIDAKVAKEIGCFTGVKDTIENIIHTLDYKRLNPNMLVYSGSDMLIATVASTGLDGNVAAGSNYLPEVTVTIKKLAMERKIDEALKLQFLHDEVIEASRIFGSLSSNYVLTKYFQGYDLGYPRPPIFPLDDEEERQLIKKVEGIRAKLVELKILKE | soluble |
